Assay results from patent US20210292414A1 (H LUNDBECK A S, published 2021).
Substitutions are numbered along the chain they refer to. Each block holds one binder with its values, some of them ahead of it.

Key:
Experiment in all cases: BLI (Octet384RED)
[1] = target: T1, Sortilin SORTECDBAP_tetra (tetraodon)
T1 construct: Fully tetraodon Sortilin ECD with BAP tag; also called tetraodon; tetraodon Sortilin
T1 chain: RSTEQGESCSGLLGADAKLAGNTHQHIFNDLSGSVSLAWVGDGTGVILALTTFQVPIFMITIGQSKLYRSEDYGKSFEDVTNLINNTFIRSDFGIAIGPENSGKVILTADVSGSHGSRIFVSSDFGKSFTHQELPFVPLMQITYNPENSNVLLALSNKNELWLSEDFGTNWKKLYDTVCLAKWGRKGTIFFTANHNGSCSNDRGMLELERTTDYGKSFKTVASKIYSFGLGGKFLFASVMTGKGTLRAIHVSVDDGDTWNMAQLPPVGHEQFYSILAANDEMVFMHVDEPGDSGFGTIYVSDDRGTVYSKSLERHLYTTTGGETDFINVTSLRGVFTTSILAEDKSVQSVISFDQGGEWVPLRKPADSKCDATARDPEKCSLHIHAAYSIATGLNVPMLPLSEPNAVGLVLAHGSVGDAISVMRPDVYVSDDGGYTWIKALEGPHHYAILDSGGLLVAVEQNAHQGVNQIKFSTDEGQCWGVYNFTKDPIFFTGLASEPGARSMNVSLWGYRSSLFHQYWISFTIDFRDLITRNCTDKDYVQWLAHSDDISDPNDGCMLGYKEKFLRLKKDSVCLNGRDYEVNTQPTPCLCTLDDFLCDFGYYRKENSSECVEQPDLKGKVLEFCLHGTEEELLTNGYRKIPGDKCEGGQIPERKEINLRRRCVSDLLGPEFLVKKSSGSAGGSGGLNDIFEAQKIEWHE

[2] = target: T2, Sortilin hSORTECDBAP (human, UniProt Q99523 78-755)
T2 sequence: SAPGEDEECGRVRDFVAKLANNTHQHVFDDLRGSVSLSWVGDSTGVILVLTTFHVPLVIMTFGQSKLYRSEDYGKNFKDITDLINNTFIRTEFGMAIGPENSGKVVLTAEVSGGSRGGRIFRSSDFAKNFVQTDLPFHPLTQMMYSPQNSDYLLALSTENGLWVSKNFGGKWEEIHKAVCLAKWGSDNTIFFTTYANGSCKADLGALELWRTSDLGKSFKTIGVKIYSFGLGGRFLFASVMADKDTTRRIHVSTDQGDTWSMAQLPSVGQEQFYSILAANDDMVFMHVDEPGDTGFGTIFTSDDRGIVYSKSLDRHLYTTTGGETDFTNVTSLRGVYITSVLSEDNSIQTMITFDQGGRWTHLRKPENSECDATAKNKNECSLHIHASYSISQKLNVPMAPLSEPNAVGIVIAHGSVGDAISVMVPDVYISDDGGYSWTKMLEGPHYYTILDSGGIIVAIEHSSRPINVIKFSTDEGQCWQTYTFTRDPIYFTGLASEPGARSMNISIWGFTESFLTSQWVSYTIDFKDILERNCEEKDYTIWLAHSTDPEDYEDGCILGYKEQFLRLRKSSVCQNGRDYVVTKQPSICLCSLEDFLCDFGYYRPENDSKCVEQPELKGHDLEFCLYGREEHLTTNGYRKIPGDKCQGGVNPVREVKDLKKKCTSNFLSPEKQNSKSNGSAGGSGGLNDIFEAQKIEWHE

[3] = target: T3, hRim
T3 chimeric human/tetraodon Sortilin extracellular region, BAP tag: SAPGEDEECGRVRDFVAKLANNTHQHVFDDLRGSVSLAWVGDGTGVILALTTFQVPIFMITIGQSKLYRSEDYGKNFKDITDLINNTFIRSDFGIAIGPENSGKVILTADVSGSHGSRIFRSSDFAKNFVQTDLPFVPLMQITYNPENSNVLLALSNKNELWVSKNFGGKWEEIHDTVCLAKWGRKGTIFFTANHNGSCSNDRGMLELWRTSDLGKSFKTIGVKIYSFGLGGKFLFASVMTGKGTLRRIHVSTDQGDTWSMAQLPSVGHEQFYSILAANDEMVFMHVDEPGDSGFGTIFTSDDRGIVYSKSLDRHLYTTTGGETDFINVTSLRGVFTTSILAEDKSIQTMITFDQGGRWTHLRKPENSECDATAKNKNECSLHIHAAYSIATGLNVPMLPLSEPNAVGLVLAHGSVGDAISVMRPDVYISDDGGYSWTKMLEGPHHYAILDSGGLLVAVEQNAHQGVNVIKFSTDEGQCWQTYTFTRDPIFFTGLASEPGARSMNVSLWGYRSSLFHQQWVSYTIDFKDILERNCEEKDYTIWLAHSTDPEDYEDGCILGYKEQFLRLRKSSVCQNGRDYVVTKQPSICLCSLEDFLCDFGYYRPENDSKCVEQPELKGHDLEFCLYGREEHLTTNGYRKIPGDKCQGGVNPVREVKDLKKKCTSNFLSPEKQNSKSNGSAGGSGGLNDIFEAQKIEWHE

[4] = target: T4, Sortilin SORTECDBAP_hB01-05 (human/tetraodon chimera)
T4 construct: Shuffle construct: chimeric human/tetraodon Sortilin ECD with BAP tag
T4 chain: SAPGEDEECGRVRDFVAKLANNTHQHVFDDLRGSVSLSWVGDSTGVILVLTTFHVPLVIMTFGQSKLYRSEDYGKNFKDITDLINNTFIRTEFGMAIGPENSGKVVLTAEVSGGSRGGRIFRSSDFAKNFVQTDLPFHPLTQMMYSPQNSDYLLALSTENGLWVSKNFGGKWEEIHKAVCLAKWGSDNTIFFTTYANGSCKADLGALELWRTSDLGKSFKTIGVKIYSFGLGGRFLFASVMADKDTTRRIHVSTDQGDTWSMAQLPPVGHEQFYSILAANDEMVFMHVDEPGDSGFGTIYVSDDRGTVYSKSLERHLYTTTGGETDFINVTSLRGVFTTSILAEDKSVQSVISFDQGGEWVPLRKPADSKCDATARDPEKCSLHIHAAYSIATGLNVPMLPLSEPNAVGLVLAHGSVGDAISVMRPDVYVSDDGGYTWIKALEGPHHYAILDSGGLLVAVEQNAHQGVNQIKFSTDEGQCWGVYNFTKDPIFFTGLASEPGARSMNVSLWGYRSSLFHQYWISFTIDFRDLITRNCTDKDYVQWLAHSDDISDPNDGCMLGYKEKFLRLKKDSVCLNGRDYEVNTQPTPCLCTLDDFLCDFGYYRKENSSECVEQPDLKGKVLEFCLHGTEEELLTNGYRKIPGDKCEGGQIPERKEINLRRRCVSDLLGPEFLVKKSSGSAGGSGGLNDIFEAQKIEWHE

binding result [1]: no binding
EC50 [2]: 3.4 ng/mL
EC50 [3]: 4.42 ng/mL
binding result [4]: no binding
B3: Antibody 6003-886 (antibody, human IgG1, V domains shown)
VH: QVQLVQSGAEVKKPGASVKVSCKASGYTFTKYGISWVRQAPGQGLEWMGWISAYNGNTNYAQKLQDRVTMTTDTFTSTAYMELRSLRSDDTAVYFCARDGPLTGDFTFYGMDVWGQGTTVTVSS
VL: EIVLTQSPATLSLSPGERATLSCRASQSVSSYLAWYQQKPGQAPRLLIYDASNRATGIPARFSGSGSGTDFTLTISSLEPEDFAVYYCQQRSNWPPFTFGPGTKVDIK

binding result [1]: no binding
EC50 [2]: 1.34 ng/mL
EC50 [3]: 2.59 ng/mL
binding result [4]: no binding
B4: IgG1-6003-910 (antibody, V domains shown)
VH: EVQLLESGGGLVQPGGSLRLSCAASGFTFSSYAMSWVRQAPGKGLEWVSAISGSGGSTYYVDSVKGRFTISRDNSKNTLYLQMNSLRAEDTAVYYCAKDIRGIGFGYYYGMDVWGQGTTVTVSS
VL: EIVLTQSPATLSLSPGERATLSCRASQSVSSYLVWYQQKPGQAPRLLIYDASNRATGIPARFSGSGSGTDFTLTISSLEPEDFAVYYCQQRSNWPPTFGQGTRLEIK
notes: also called Antibody 6003-910

binding result [1]: no binding
EC50 [2]: 1.35 ng/mL
EC50 [3]: 3.08 ng/mL
binding result [4]: no binding
B5: IgG1-6003-972 (antibody, V domains shown)
VH: QVQLVESGGGVVQPGRSLRLSCAASGFTFSDYAMHWVRRAPGKGLEWVVVISYDGSNKYYADSVKGRFTISRDNSKNTLYLQMNSLRAEDTAVYYCARDPSGGWYFDLWGRGTLVTVSS
VL: B4 VL with V34A, V85L, N93H, P96R, R103K, L104V
notes: also called Antibody 6003-972

binding result [1]: no binding
EC50 [2]: 1.06 ng/mL
EC50 [3]: 1.26 ng/mL
binding result [4]: no binding
B6: Antibody 6003-900 (antibody, human IgG1, V domains shown)
VH: EVQLVESGGGLVKPGGSLRLSCAASGFTFSSYSMNWVRQAPGKGLEWVSSISSSSSYIYYADSVKGRFTISRDNAKNSLYLQMNSLRAEDTAVYYCARRGSGSYDAFDIWGQGTMVTVSS
VL: EIVLTQSPDFQSVTPKEKVTITCRASQSIGYSLHWYQQKPDQSPKLLIKYASQSFSGVPSRFSGSGSGTDFTLTINSLEAEDAAAYYCHQSSSLPLTFGGGTKVEIK
notes: also called antibody 900; Sortilin human antibody 900

Continued, binder first:

B1: Antibody 6003-799 (antibody, human IgG1, V domains shown)
VH: QVQLVESGGGVVQPGRSLRLSCAASGFTFSSYGMHWVRQAPGKGLEWVTVISYDGSNKYYADSVKGRFTISRDNSKNTLYLQMNSLRAEDTAVYYCAKLTGDAFDIWGQGTMVTVSS
VL: B3 VL with A34V, D50H, P96R, F97I, P101Q, K104R, V105L, D106E
binding result [1]: no binding
EC50 [2]: 3.49 ng/mL
EC50 [3]: 5.02 ng/mL
binding result [4]: no binding

B2: Antibody 6003-822 (antibody, human IgG1, V domains shown)
VH: EVQLLESGGGLVQPGESLTLSCAASGFTLSSYAMSWVRQAPGKGLEWVSSISGRLGTTYYAASVKGRFTISRDNSKNTLYLQMNSLRAEDTAIYSCAKAPSDAFDIWGQGTMVTVSS
VL: B3 VL with P96I
binding result [1]: no binding
EC50 [2]: 1.97 ng/mL
EC50 [3]: 2.31 ng/mL
binding result [4]: no binding
